Assay results reported in patent EP4563159A1.
Values belong to the binder of their own block, whether it stands above or below them.

Molecular target: secretory IgA from human colostrum (human) (UniProt P11912)
Test: solid-phase IgA binding assay (ELISA): streptavidin-peptide conjugate coated, secretory IgA from human colostrum titrated, anti-human IgA-HRP detection

Chain of UniProt P11912 (P11912 whole entry): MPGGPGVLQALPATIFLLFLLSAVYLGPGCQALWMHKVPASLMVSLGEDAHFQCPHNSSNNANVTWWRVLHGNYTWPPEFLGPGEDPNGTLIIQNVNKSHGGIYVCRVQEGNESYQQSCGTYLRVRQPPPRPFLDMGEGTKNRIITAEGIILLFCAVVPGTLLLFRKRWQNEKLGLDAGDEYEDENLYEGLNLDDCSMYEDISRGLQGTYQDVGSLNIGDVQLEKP

- EC50: 900 nM
B1: IgA binding peptide … (SEQ ID NO 35) (peptide)
peptide: KMVCLAYRGRPVCFPT
modifications: cyclized; carboxy terminal PEG linker and a biotin tag

- EC50: 900 nM
B2: IgA binding peptide … (SEQ ID NO 36) (peptide)
peptide: HSVCLAYRGRPVCFPT
modifications: cyclized; carboxy terminal PEG linker and a biotin tag
